Literature values as cited in publication PMC8417749.

How the values were obtained:
CXCR2 (Homo sapiens) = CXCR2 (Homo sapiens) (UniProt P25025)
CXCR1 (Homo sapiens) = CXCR1 (Homo sapiens) (UniProt P25024)
Chain of CXCR1 (Homo sapiens) (P25024 whole entry): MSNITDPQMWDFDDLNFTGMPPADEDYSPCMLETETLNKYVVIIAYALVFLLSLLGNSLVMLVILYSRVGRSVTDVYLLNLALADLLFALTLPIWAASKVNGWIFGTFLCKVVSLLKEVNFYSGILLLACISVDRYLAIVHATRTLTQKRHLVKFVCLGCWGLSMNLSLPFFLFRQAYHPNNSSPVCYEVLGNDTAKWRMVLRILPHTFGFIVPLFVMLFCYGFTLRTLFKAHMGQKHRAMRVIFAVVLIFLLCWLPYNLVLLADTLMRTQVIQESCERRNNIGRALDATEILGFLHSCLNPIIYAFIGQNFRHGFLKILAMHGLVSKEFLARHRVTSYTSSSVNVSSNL

Chain of IL-8 (P10145 28-99): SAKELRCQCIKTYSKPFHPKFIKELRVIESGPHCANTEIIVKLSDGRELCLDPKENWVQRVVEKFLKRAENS
Chain of CXCR2 (Homo sapiens) (P25025 whole entry): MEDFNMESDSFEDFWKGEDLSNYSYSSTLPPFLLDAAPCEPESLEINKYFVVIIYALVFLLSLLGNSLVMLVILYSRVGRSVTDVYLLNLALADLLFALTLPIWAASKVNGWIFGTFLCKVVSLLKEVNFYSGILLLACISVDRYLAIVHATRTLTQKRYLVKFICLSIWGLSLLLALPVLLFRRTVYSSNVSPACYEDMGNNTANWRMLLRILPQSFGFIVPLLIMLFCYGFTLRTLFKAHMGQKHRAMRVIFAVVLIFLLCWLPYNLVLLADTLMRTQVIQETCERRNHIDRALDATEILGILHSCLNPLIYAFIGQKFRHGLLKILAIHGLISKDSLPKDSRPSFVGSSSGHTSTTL

Kd (CXCR2 (Homo sapiens)): 2 nM
Kd (CXCR1 (Homo sapiens)): 2 nM
Substance: IL-8 (from UniProt P10145)
